Target: the molecule itself
Assay: SEC; Superdex Increase 200 10/300GL, protein in PBS after His Trap purification; step run to remove aggregates

B1: wild-type hLYVE-1 Δ238 His10 (soluble full ectodomain of human LYVE-1) (domain or fragment, UniProt Q9Y5Y7 20-238, looked up)
chain: LVQGSLRAEELSIQVSCRIMGITLVSKKANQQLNFTEAKEACRLLGLSLAGKDQVETALKASFETCSYGWVGDGFVVISRISPNPKCGKNGVGVLIWKVPVSRQFAAYCYNSSDTWTNSCIPEIITTKDPIFNTQTATQTTEFIVSDSTYSVASPYSTIPAPTTTPPAPASTSIPRRKKLICVTEVFMETSTMSTETEPFVENKAAFKNEAAGFGGVPT
notes: signal peptide in the construct; Obtained as a mixture of monomer and disulfide-linked homodimer; The protein is glycosylated, made in CHO cells; also called hLYVE-1 full wild-type ectodomain; hLYVE-1 Δ238 with a His10 single tag; source: CHO-K1, transfected (pEE14), culture supernatant, purified (His Trap, size exclusion chromatography); not shown: His10, C-terminal, kept
binding result: binds
